Measurements: paper doi:10.1101/2023.03.09.531850

Target: EcbAgaN (Escherichia coli long-B pAgo-associated nuclease) (Escherichia coli)
Experiment: SEC-MALS

stoichiometry N: 2
Substance: EcbAgaN (Escherichia coli long-B pAgo-associated nuclease) (enzyme)
